Assay [1] deals with T1, rat TNFR2 (R&D systems, 8348-R2-050) (rat, UniProt Q80WY6 23-258).
T1 construct: Bought protein
T1 sequence (looked up): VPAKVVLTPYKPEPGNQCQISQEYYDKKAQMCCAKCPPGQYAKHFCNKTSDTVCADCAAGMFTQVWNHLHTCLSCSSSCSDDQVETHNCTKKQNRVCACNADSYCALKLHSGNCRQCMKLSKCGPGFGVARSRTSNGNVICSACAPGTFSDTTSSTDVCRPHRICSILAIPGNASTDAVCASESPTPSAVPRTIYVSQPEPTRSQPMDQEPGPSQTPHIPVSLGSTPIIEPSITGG
As to the kind of experiment: ELISA, receptor coated at 1 µg/ml. The procedure:
Plates were incubated at 4° C. overnight. Antibodies was titrated from 100 μg/ml in a 5-fold dilution series, and distributed 100 μL, per well and incubated at 37° C. for 1 hour. Human IgG1 isotype control (BioxCell, BE0297) was used as negative control. TNFR2 Polyclonal Antibody (Invitrogen, PAS-80159) and HRP conjugated Goat anti-Rabbit IgG Fc Secondary Antibody (Invitrogen, A16116) were used as positive control for rat TNFR2 detection.
On the technique in general: In an ELISA, binding on a coated surface is turned into a signal by an enzyme label.

The target in assay [2] is T2, His tagged human TNFR2 ECD (Acro Biosystem, TN2-H5227) (human, UniProt P20333 23-257).
T2 construct: extracellular domain; Bought protein; also called TNFR2-His; hTNFR2-His; not shown: His tag
T2 sequence (looked up): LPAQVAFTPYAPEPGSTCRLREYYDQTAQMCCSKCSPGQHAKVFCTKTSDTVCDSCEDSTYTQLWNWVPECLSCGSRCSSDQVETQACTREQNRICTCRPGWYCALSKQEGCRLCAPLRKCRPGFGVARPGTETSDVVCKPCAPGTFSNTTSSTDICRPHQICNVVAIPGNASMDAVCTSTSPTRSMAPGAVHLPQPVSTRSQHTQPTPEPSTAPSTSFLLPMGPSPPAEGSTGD
Description: ELISA, receptor coated at 1 µg/mL, antibody titrated from 5 µg/mL. The procedure: (§1) Human TNFR2 (Acro Biosystem, TN2-H5227), Human TNFR1 (Acro Biosystem, TN1-H5222), Cynomolgus TNFR2 (Sino Biological, 90102-CO8H) or mouse TNFR2 (R&D systems, 426-R2-050/CF) was coated on high binding polystyrene flat bottom micro-titer plates (Thermo Scientific, 3455) in PBS (PH=7.4, Gibco,10010-031) at 1 μg/mL and 100 μL per well. Plates were incubated at 4° C. overnight.
(§2) Plates were warmed up to room temperature the next day and washed with 200 μL PBS containing 0.1% Tween 20 (Life technologies, 003005) per well for 3 times. Plates were blocked with 200 μL PBS buffer containing 1% BSA (Fisher Scientific, BP1600-100) per well for 1 hour at 37° C. Antibodies was titrated from 5 μg/mL in a 5-fold dilution series, distributed 100 μL per well and incubated at 37° C. for 1 hour. Human IgG1 isotype control (BioxCell, BE0297) was used as negative control. Plates were washed with 200 μL PBS containing 0.1% Tween 20 (Life technologies, 003005) per well for 3 times. Goat anti-Human IgG Fc Secondary Antibody-HRP conjugate (Invitrogen, A18817) were distributed at 0.5μg/mL and 100 μL per well to detect bound antibodies. After 1-hour incubation of secondary antibody at 37° C., plates were washed with 200 μL PBS containing 0.1% Tween 20 (Life technologies, 003005) per well for 3 times. Plates were developed using TMB Substrate Solution (eBioscience, 00-4201-56) and stopped with ELISA stop solution (Invitrogen, SSO4). The level of bound antibodies was determined by reading absorbance at 450 nm. Mouse anti-human TNFR1 antibody (ThermoFisher Scientific, MA1-81005) and goat anti mouse IgG secondary antibody-HRP conjugate (Invitrogen, 62-5520) were used as positive control for human TNFR1 detection. Armenian Hamster anti-mouse TNFR2 antibody (InVivoMab, BE0247) and HRP-Goat anti-Armenian Hamster IgG (H+L) Secondary Antibody (Invitrogen, PA1-32045) were used as positive control for mouse TNFR2 detection.

Assay [3] deals with T3, Human TNFR1 (Acro Biosystem, TN1-H5222) (human, UniProt P19438 30-211).
T3 construct: Bought protein; also called TNF receptor type 1; CD120a
T3 sequence (looked up): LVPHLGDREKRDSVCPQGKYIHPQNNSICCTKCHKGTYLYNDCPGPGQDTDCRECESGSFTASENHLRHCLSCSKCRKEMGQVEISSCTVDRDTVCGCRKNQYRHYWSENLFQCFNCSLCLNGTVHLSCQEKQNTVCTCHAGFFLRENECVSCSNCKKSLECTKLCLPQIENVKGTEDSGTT
Description: ELISA, receptor coated at 1 µg/mL. The procedure: as §1, §2

The target of assay [4] is T4, mouse TNFR2 (R&D systems, 426-R2-050/CF) (mouse, UniProt P25119 23-258).
T4 construct: Bought protein
T4 sequence (looked up): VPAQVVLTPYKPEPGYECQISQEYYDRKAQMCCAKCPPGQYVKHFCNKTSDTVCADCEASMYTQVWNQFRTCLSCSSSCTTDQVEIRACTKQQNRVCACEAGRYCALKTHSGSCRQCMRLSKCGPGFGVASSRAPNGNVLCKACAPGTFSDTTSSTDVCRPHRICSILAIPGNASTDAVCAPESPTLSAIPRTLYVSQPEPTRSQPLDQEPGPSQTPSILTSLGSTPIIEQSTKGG
Description: ELISA, receptor coated at 1 µg/mL. The procedure: as §1, §2

The target of assay [5] is T5, Full length human TNFR2 on Jurkat E6-1 cells (Clone NO.3) (human, UniProt P20333 23-461).
T5 construct: whole, on cells; also called human TNFR2+ Jurkat cells; hTNFR2 Jurkat
T5 sequence (looked up): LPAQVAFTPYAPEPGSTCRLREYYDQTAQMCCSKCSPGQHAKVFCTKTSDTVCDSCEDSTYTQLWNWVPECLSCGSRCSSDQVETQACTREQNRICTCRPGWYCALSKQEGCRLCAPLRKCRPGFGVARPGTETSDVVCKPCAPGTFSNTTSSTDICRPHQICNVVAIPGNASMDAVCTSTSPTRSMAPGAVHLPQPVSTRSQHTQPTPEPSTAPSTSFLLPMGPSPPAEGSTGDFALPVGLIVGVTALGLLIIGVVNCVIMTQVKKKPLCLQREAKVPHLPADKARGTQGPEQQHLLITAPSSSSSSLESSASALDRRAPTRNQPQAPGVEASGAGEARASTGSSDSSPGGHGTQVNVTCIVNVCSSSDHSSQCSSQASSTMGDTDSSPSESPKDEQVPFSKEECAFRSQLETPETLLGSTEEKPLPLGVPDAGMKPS
As to the kind of experiment: FACS on human TNFR2+ Jurkat Clone No.3, biotinylated antibody with streptavidin-PE. The procedure:
FACS analysis was used to evaluate the binding of purified anti-TNFR2 antibody candidates produced from example 6 to cell surface TNFR2 target. Anti-human TNFR2 antibodies and negative control IgG were biotinylated using a EZ-Link™ Micro Sulfo-NHS-Biotinylation Kit (Thermo Fisher Scientific, 21925) according to manufacturer's instructions. Biotinylated antibodies (100 μg/mL) were then incubated with Halt™ Protease Inhibitor Cocktail (100X, Thermo Scientific, 1862209) and 80 μg/mL Streptavidin-R-Phycoerythrin (PE) conjugate (Invitrogen, S21388). Antibodies were stored at 4° C. until use. 5×10⁵ Clone No.3 of human TNFR2⁺ Jurkat cells were distributed each well and blocked with human TruStain FcX™ (Biolegend, 422302) for 10 minutes at room temperature before stained with a serially diluted PE conjugated anti-human TNFR2 antibodies or hIgG1 starting from 50 μg/mL in a 5-fold dilution fashion for 30 minutes at 4° C. PE-anti hTNFR2 (Clone MR2-1, Thermo fisher #TNFR7504) was used as positive control. The geometric mean fluorescent intensity was measured on Sony SA3800 cell analyzer. Data were analyzed using Flowjo Software (Tree star Inc).

Where a chain is given by its changes, count along the chain named.

B1: TN36-3 (antibody, human IgG1, V domains shown)
VH: EVQLVESGGGLIQPGGSLRLSCAASGFSLSSSAVSWVRQAPGKGLEWIGAIGSGGTSYYSNWAKSRFTISRDNSKNTLYLQMNSLRAEDTAVYYCARDPNSSDYPYGAYGMGLWGRGTLVTVSS
VL: DIQMTQSPSSLSASVGDRVTITCQVSQSISSYLSWYQQKPGKPPKLLIYYASTLASGVPSRFSGSGSGTDFTLTISSLQPEDFATYYCQQGYITSNVGNAFGGGTKVEIK
notes: Humanized; also called AL2/AL9
For B1, the binding result in assay [1] is on record as “no binding (tested: titrated from 100 µg/ml)”; in assay [2], “binds”; in assay [3] it was “no binding (tested: titrated from 5 µg/mL)”; in assay [4] it was “no binding (tested: titrated from 5 µg/mL)”; in assay [5] it was “binds”.

B2: TN36-5 (antibody, human IgG1, V domains shown)
VH: B1 VH
VL: B1 VL with M4L, S10F, P43A, D70E
notes: Humanized; also called AL2/AL11
Consider B2, for which the binding result is “no binding (tested: titrated from 100 µg/ml)” in assay [1]; “binds” in assay [2]; “no binding (tested: titrated from 5 µg/mL)” in assay [3]; “no binding (tested: titrated from 5 µg/mL)” in assay [4]; “binds” in assay [5].

B3: TN36-7 (antibody, human IgG1, V domains shown)
VH: B1 VH with Y94F
VL: B1 VL
notes: Humanized; also called AL3/AL9
B3: the binding result in assay [1] was “no binding (tested: titrated from 100 µg/ml)”; in assay [2], “binds”; in assay [3], “no binding (tested: titrated from 5 µg/mL)”; in assay [4] it was “no binding (tested: titrated from 5 µg/mL)”; in assay [5], “binds”.

B4: TN36-6 (antibody, human IgG1, V domains shown)
VH: B1 VH with Y94F
VL: B1 VL with P43A
notes: Humanized; also called AL3/AL8
B4: the binding result was “no binding (tested: titrated from 100 µg/ml)” in assay [1]; “binds” in assay [2]; “no binding (tested: titrated from 5 µg/mL)” in assay [3]; “no binding (tested: titrated from 5 µg/mL)” in assay [4]; “binds” in assay [5].

B5: TN36-20 (antibody, human IgG1, V domains shown)
VH: B1 VH with I12V, R116P
VL: B1 VL with S10F, P43A
notes: Humanized; also called AL6/AL10
Regarding B5, the binding result in assay [1] was “no binding (tested: titrated from 100 µg/ml)”; in assay [3], “no binding (tested: titrated from 5 µg/mL)”; in assay [4], “no binding (tested: titrated from 5 µg/mL)”.

B6: TN36-9 (antibody, human IgG1, V domains shown)
VH: B1 VH with Y94F
VL: B1 VL with M4L, S10F, P43A, D70E
notes: Humanized; also called AL3/AL11
As for B6, the binding result in assay [1] is given as “no binding (tested: titrated from 100 µg/ml)”; in assay [2], “binds”; in assay [3], “no binding (tested: titrated from 5 µg/mL)”; in assay [4], “no binding (tested: titrated from 5 µg/mL)”; in assay [5], “binds”.

B7: TN36-8 (antibody, human IgG1, V domains shown)
VH: B1 VH with Y94F
VL: B1 VL with S10F, P43A
notes: Humanized; also called AL3/AL10
Take B7: the binding result is given as “no binding (tested: titrated from 100 µg/ml)” in assay [1]; “binds” in assay [2]; “no binding (tested: titrated from 5 µg/mL)” in assay [3]; “no binding (tested: titrated from 5 µg/mL)” in assay [4]; “binds” in assay [5].

B8: TN36-21 (antibody, human IgG1, V domains shown)
VH: B1 VH with I12V, R116P
VL: B1 VL with M4L, S10F, P43A, D70E
notes: Humanized; also called AL6/AL11
Turning to B8, the binding result in assay [1] is “no binding (tested: titrated from 100 µg/ml)”; in assay [3] it was “no binding (tested: titrated from 5 µg/mL)”; in assay [4], “no binding (tested: titrated from 5 µg/mL)”.

B9: TN36-4 (antibody, human IgG1, V domains shown)
VH: B1 VH
VL: B1 VL with S10F, P43A
notes: Humanized; also called AL2/AL10
Turning to B9, the binding result is “no binding (tested: titrated from 100 µg/ml)” in assay [1]; “binds” in assay [2]; “no binding (tested: titrated from 5 µg/mL)” in assay [3]; “no binding (tested: titrated from 5 µg/mL)” in assay [4]; “binds” in assay [5].

Values taken from US20240043551A1 (ADLAI NORTYE BIOPHARMA, published 2024).
